From patent US20130230532A1 (HONG KONG UNIVERSITY OF SCIENCE AND TECHNOLOGY, published 2013) come the findings set out here.

Test [1] addresses T1, GFP-EB3 (UniProt Q9UPY8 1-281).
T1 construct: not shown: GFP tag
Kind of test: anti-FLAG co-immunoprecipitation from HEK293T, anti-GFP immunoblot. The method, then:
(§1) After anti-FLAG immunoprecipitation, the immunoprecipitates and inputs were probed on immunoblots. […] Scale bars, 5 μm.
(§2) Anti-FLAG immunoprecipitation was performed using anti-FLAG-coupled beads (M2, Sigma) in cell extracts prepared with a lysis buffer (20 mM Tris-HCl, pH7.4, 150 mM NaCl, 1 mM EDTA, 1% Triton X-100, 1 mM dithiothreitol, and the Protease Inhibitor Cocktail). Immunoprecipitated proteins were detected by immunoblotting.

The target in test [2] is T2, EB1 (UniProt Q15691 2-268).
T2 construct: Endogenous protein detected by immunoblot or mass spectrometry; also called endogenous EB1
T2 sequence (looked up): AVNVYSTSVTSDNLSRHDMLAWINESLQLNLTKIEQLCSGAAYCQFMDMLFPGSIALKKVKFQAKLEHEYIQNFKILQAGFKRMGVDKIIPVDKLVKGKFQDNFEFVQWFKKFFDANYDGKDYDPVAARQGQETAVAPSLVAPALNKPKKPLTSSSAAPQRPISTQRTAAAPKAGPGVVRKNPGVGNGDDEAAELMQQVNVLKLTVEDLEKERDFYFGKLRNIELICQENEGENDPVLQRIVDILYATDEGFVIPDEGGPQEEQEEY
The test is described as follows: anti-FLAG co-immunoprecipitation, immunoblot. The procedure:
as §1, §2

Test [3] deals with T3, AKAP450 (UniProt Q99996 1-3907, limits assumed).
T3 construct: Endogenous protein detected by immunoblot; also called AKAP350; CG-NAP
T3 sequence (Q99996 whole entry): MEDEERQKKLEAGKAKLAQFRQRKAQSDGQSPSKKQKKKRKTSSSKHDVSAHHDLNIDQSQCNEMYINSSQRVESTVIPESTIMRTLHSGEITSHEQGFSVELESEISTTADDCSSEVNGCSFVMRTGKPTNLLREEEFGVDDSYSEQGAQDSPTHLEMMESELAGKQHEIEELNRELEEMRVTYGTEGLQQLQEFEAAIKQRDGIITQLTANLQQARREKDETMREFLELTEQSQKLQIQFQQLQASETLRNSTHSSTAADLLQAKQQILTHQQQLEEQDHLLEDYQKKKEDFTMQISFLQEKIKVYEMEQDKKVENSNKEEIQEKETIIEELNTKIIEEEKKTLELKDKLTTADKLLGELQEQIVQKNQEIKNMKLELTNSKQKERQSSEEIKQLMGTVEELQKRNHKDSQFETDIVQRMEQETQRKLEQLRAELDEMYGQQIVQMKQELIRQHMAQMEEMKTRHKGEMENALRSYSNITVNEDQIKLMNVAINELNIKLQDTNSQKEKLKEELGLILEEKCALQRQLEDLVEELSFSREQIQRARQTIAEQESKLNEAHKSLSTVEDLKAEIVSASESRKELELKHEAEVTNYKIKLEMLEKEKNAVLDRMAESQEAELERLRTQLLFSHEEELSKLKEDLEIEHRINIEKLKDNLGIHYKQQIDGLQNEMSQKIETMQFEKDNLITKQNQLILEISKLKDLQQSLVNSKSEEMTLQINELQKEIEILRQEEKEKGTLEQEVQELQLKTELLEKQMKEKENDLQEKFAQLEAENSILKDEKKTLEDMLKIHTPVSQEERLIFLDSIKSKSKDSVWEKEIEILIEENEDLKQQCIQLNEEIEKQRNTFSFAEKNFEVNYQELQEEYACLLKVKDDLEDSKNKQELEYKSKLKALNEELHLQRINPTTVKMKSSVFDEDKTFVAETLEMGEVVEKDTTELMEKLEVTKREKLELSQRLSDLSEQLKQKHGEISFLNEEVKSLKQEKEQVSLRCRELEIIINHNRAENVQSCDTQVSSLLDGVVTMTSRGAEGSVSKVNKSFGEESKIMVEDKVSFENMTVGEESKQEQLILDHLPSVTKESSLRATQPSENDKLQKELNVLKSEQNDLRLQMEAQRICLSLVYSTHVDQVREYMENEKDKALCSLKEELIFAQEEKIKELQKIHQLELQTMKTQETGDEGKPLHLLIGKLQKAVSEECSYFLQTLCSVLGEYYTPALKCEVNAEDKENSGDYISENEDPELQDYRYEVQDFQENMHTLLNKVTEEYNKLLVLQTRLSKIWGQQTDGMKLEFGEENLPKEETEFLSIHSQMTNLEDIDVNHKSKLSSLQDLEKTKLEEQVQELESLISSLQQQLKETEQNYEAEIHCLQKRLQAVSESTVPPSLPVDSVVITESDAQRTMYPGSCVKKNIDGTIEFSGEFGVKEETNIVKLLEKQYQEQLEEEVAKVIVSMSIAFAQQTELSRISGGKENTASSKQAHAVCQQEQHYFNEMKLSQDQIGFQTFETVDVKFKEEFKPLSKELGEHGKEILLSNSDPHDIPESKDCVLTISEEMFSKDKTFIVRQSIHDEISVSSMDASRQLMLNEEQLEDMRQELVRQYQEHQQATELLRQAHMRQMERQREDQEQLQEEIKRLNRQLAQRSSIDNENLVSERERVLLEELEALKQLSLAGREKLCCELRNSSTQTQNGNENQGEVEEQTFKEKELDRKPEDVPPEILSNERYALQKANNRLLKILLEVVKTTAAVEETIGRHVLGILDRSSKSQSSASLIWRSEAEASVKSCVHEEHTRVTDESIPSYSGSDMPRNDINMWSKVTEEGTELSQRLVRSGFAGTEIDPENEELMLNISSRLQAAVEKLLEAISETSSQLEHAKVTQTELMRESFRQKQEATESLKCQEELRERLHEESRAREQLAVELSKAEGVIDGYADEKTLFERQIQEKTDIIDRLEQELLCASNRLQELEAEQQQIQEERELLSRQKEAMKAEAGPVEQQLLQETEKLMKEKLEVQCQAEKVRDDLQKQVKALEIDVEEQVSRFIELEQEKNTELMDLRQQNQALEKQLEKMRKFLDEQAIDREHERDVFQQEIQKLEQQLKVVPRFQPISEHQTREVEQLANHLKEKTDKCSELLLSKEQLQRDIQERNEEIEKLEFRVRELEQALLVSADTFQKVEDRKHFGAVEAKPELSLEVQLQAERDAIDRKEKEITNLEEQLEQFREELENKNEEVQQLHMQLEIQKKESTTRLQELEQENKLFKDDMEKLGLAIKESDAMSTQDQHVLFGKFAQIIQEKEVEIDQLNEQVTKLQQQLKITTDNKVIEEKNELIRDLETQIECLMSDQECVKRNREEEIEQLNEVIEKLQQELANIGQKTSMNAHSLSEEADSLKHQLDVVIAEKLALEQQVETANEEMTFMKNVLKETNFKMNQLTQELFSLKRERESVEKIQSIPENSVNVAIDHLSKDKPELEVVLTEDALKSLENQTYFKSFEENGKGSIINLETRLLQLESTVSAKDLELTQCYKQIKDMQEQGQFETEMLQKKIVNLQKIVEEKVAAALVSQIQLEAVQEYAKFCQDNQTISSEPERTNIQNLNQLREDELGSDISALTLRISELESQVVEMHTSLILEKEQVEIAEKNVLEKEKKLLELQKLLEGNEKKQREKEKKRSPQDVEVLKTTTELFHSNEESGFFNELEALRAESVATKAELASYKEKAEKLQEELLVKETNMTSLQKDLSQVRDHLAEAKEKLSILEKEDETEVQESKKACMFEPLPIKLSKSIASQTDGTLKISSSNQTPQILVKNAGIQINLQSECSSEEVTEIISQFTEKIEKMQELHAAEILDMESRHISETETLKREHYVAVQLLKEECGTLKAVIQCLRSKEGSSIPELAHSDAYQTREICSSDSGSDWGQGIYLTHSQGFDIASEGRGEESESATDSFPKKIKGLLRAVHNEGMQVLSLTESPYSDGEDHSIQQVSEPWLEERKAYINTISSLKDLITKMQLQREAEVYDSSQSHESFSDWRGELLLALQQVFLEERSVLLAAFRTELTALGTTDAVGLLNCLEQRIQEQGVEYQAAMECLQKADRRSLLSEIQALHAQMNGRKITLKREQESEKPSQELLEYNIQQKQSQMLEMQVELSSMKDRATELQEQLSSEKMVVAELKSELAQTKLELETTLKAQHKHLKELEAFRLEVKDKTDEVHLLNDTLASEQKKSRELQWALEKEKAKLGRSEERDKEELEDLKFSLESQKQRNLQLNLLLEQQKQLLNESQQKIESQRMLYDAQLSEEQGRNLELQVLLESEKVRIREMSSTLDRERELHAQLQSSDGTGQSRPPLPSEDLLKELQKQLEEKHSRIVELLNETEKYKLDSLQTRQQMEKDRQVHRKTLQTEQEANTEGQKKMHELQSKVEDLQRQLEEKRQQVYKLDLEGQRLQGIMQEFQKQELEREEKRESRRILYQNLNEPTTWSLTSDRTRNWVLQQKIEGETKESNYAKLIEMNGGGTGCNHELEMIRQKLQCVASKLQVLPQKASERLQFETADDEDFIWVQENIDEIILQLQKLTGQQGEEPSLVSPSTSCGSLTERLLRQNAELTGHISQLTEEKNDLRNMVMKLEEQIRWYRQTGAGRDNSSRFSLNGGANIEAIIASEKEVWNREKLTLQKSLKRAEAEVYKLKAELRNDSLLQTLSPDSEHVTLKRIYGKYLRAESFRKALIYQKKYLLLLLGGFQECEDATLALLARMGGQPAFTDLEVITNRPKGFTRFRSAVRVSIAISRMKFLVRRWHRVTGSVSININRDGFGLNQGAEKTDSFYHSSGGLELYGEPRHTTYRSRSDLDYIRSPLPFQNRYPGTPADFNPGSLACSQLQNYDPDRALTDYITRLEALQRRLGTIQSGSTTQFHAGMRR
The test is described as follows: anti-FLAG co-immunoprecipitation from HEK293T, immunoblot. The procedure:
The immunoprecipitated proteins and inputs were analyzed by immunoblotting and quantified. […] Data shown are means±S.D. from three independent experiments. […] The arrow indicates a transfected cell. Boxed areas are enlarged. Scale bars, 5 μm.
as §2

T1 sequence (Q9UPY8 whole entry): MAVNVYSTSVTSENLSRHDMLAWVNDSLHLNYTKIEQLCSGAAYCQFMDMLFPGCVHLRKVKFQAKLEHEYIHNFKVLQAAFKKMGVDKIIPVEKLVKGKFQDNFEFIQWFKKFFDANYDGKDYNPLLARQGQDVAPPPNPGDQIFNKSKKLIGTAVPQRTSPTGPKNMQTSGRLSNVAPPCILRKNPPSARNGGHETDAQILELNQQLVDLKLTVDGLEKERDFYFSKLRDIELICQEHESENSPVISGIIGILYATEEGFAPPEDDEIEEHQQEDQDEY

B1: FLAG-tagged full-length MMG8(L311A/P312A) (other)
chain: MKEICRICARELCGNQRRWIFHTASKLNLQVLLSHVLGKDVPRDGKAEFACSKCAFMLDRIYRFDTVIARIEALSIERLQKLLLEKDRLKFCIASMYRKNNDDSGAEIKAGNGTVDMSVLPDARYSALLQEDFAYSGFECWVENEDQIQEPHSCHGSEGPGNRPRRCRGCAALRVADSDYEAICKVPRKVARSISCGPSSRWSTSICTEEPALSEVGPPDLASTKVPPDGESMEEETPGSSVESLDASVQASPPQQKDEETERSAKELGKCDCCSDDQAPQHGCNHKLELALSMIKGLDYKPIQSPRGSRAAIPVKSSLPGAKPGPSMTDGVSSGFLNRSLKPLYKTPVSYPLELSDLQELWDDLCEDYLPLRVQPMTEELLKQQKLNSHETTITQQSVSDSHLAELQEKIQQTEATNKILQEKLNEMSYELKCAQESSQKQDGTIQNLKETLKSRERETEELYQVIEGQNDTMAKLREMLHQSQLGQLHSSEGTSPAQQQVALLDLQSALFCSQLEIQKLQRVVRQKERQLADAKQCVQFVEAAAHESEQQKEASWKHNQELRKALQQLQEELQNKSQQLRAWEAEKYNEIRTQEQNIQHLNHSLSHKEQLLQEFRELLQYRDNSDKTLEANEMLLEKLRQRIHDKAVALERAIDEKFSALEEKEKELRQLRLAVRERDHDLERLRDVLSSNEATMQSMESLLRAKGLEVEQLSTTCQNLQWLKEEMETKFSRWQKEQESIIQQLQTSLHDRNKEVEDLSATLLCKLGPGQSEIAEELCQRLQRKERMLQDLLSDRNKQVLEHEMEIQGLLQSVSTREQESQAAAEKLVQALMERNSELQALRQYLGGRDSLMSQAPISNQQAEVTPTGRLGKQTDQGSMQIPSRDDSTSLTAKEDVSIPRSTLGDLDTVAGLEKELSNAKEELELMAKKERESQMELSALQSMMAVQEEELQVQAADMESLTRNIQIKEDLIKDLQMQLVDPEDIPAMERLTQEVLLLREKVASVESQGQEISGNRRQQLLLMLEGLVDERSRLNEALQAERQLYSSLVKFHAHPESSERDRTLQVELEGAQVLRSRLEEVLGRSLERLNRLETLAAIGGGELESVRIHHKHAY
notes: also called L311A/P312A mutant; not shown: FLAG tag
With B1, the binding result in test [1] and in test [2] was “no binding” in each case.

B2: FLAG-tagged MMG8 fragment 1-389 (L311A/P312A) (other)
chain: MKEICRICARELCGNQRRWIFHTASKLNLQVLLSHVLGKDVPRDGKAEFACSKCAFMLDRIYRFDTVIARIEALSIERLQKLLLEKDRLKFCIASMYRKNNDDSGAEIKAGNGTVDMSVLPDARYSALLQEDFAYSGFECWVENEDQIQEPHSCHGSEGPGNRPRRCRGCAALRVADSDYEAICKVPRKVARSISCGPSSRWSTSICTEEPALSEVGPPDLASTKVPPDGESMEEETPGSSVESLDASVQASPPQQKDEETERSAKELGKCDCCSDDQAPQHGCNHKLELALSMIKGLDYKPIQSPRGSRAAIPVKSSLPGAKPGPSMTDGVSSGFLNRSLKPLYKTPVSYPLELSDLQELWDDLCEDYLPLRVQPMTEELLKQQKLNS
notes: not shown: FLAG tag
As to B2, the binding result in test [2] is given as “no binding”.

B3: FLAG-tagged MMG8 fragment 390-1116 (other)
chain: HETTITQQSVSDSHLAELQEKIQQTEATNKILQEKLNEMSYELKCAQESSQKQDGTIQNLKETLKSRERETEELYQVIEGQNDTMAKLREMLHQSQLGQLHSSEGTSPAQQQVALLDLQSALFCSQLEIQKLQRVVRQKERQLADAKQCVQFVEAAAHESEQQKEASWKHNQELRKALQQLQEELQNKSQQLRAWEAEKYNEIRTQEQNIQHLNHSLSHKEQLLQEFRELLQYRDNSDKTLEANEMLLEKLRQRIHDKAVALERAIDEKFSALEEKEKELRQLRLAVRERDHDLERLRDVLSSNEATMQSMESLLRAKGLEVEQLSTTCQNLQWLKEEMETKFSRWQKEQESIIQQLQTSLHDRNKEVEDLSATLLCKLGPGQSEIAEELCQRLQRKERMLQDLLSDRNKQVLEHEMEIQGLLQSVSTREQESQAAAEKLVQALMERNSELQALRQYLGGRDSLMSQAPISNQQAEVTPTGRLGKQTDQGSMQIPSRDDSTSLTAKEDVSIPRSTLGDLDTVAGLEKELSNAKEELELMAKKERESQMELSALQSMMAVQEEELQVQAADMESLTRNIQIKEDLIKDLQMQLVDPEDIPAMERLTQEVLLLREKVASVESQGQEISGNRRQQLLLMLEGLVDERSRLNEALQAERQLYSSLVKFHAHPESSERDRTLQVELEGAQVLRSRLEEVLGRSLERLNRLETLAAIGGGELESVRIHHKHAY
notes: not shown: FLAG tag
As for B3, in test [3], the binding result is recorded as “no binding”.
